# Bridge positions count the residues as written; N and C are the ends. Ends that are not written are not given here.
# Experiments:
# [1] = target: monoclonal antibody 3C10 (produced by hybridoma cell line ATCC deposit designation PTA-9638); assay: FCS competition: 2 nM Alexa488-PIVKA-II (13-27) tracer + 10 nM mAb 3C10, competitor titrated; apparent diffusion coefficient of the tracer
# [2] = target: monoclonal antibody 3C10 (produced by hybridoma cell line ATCC deposit designation PTA-9638); assay: FCS competition: 2 nM Alexa488-PIVKA-II (13-27) premixed with 10 nM mAb 3C10, unlabelled PIVKA-II (13-27) added, overnight; D of the tracer (high D = tracer displaced)
binder,measurement,setting,value
"LERECVEETCSYEEA (disulfide 5-10 (inferred)) [PIVKA-II (13-27) peptide, unlabelled (positive control competitor)]",IC50 (read off the curve),[1],50 nM
same,Apparent Diffusion Coefficient (D),[2],174 um^2/sec
